# Experimental data as given in publication PMC8699515.
# T1: C-reactive protein (CRP) from human pleural fluid (human) (UniProt P02741)
# T1 sequence: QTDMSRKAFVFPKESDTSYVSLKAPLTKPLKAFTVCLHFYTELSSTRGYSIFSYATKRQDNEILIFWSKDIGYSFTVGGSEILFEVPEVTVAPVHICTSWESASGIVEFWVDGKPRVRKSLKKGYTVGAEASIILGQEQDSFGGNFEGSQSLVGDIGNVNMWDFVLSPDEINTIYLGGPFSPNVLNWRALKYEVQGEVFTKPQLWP
# Target: T1, C-reactive protein (CRP) from human pleural fluid (human)
# Experiment: ELISA; phage screening ELISA: CRP 0.25 ug/well coated overnight at 4 C on MaxiSorp, saturated with 3% BSA-PBS; phages in culture supernatant (100 uL, not normalised) 2 h at room temperature; anti-M13 HRP, TMB, absorbance at 450 nm; ratio of the CRP signal to the BSA control, triplicates
binder,measurement,value
anti-CRP nanobody H7 displayed on phage (VHH) VHH: EVQLQASGGGLVQAGGSLRLSCAASGRTFSSYATGWYRQAPGKERELVAAISSGGSTYYADSVKGRFTISRDNAKNTVYLQMNSLKAEDTAVYYCAGGRRVGVLIGNEYDYWGQGTLVTVSS,Screening ELISA (CRP/BSA Signal),7.1
